From PMC7677505

Tests used:
[1] = target: Endogenous BAFF (human (endogenous in serum, CSF, cord blood)); test: SEC; cord blood sera in Hepes pH 8.2, 30 mM NaCl, 10 ug/ml BSA; fractions lyophilized; ELISA at pH 5.5 and BAFFR:Fas reporter cells with antibody 2.81
[2] = target: Endogenous BAFF (human (endogenous in serum, CSF, cord blood)); test: SEC; endogenous BAFF affinity-purified on atacicept from CSF or from serum of a CVID patient, SEC at pH 8.2; ELISA with capture at pH 5.5 and BAFFR:Fas reporter cells
[3] = target: Endogenous BAFF (human (endogenous in serum, CSF, cord blood)); test: SEC; 8-fold concentrated pool of CSF of multiple sclerosis patients at pH 8.2, 30 mM NaCl; also after depletion on anti-APRIL mAb 104; ELISA with capture at pH 5.5 and BAFFR:Fas reporter cells
[4] = target: Endogenous BAFF (human (endogenous in serum, CSF, cord blood)); test: SEC; BAFFR-deficient human serum on Superdex S200 Increase in Hepes buffer pH 8.2; BAFF activity of fractions read on BCMA:Fas reporter cells; fractions 15-17 pooled, concentrated and run again
[5] = target: Endogenous BAFF (human (endogenous in serum, CSF, cord blood)); test: SEC; adult human sera (normal, CVID, BAFFR-deficient, BTK-deficient) in Hepes pH 8.2, 30 mM NaCl, 10 ug/ml BSA; fractions lyophilized; ELISA at pH 5.5 and BAFFR:Fas reporter cells with antibody 2.81

stoichiometry N [1]: 3 | stoichiometry N [2]: 3 | stoichiometry N [3]: 3 | stoichiometry N [4]: 2.7 | stoichiometry N [5]: 3
Substance: Endogenous BAFF (ligand)
